Reference: patent US20210277441A1, “METHOD OF SELECTING A POLYPEPTIDE OF INTEREST” (IMPERIAL COLLEGE INNOVATIONS LIMITED, priority 2018, published 2021)

Legend:
[1] = tested on: LS1 strain (ΔadhE ΔldhA double mutant) cells; test: Metabolic complementation (anaerobic growth recovery) of LS1/AL strain; format: cell-based, Escherichia coli
Protocol: (§1) The LS1 mutant strain and the parental BW25113 strain were transformed with the desired plasmid and overnight pre-cultures were grown aerobically in 15 mL Falcon tubes with M9 media (0.4% glucose). These pre-cultures were used to inoculate 10 mL Hungate tubes with M9 medium (0.4% glucose) supplemented with 100 μg/mL ampicillin, 1 mM IPTG and with or without the specific substrate of the dehydrogenase under anaerobic conditions at 37° C. Metabolic complementation was assessed by measuring the optical density at 600 nm every two hours during daytime.

AL cells = test: 1H NMR analysis of fermentation broth of anaerobic cultures; format: cell-based, Escherichia coli; parameters: Substrate concentration: unit not given here
LS5 strain = test: Metabolic complementation (anaerobic growth) of quadruple mutant; format: cell-based, Escherichia coli
Protocol: as §1
Since in the triple mutants the non-deleted transhydrogenase could still be supporting anaerobic growth under anaerobic fermentation conditions when complemented with an NADPH-dependent oxidoreductase by generating oxidized NAD, the inventors generated a quadruple mutant where adhE, ldhA, sthA and pntA genes were deleted (LS5 strain, FIG. 11).

[2] = tested on: triple mutants (adhE, ldhA and one transhydrogenase gene knocked out); test: Metabolic complementation of triple mutants; format: cell-based, E. coli; conditions: any of the triple mutants
Description: As LS1 (ΔadhE-ΔldhA double mutant) was able to grow when transformed with an NADPH-dependent oxidoreductase (wild type CBADH), the inventors generated two triple mutants where, in addition to adhE and ldhA, one transhydrogenase gene was deleted in each. Transhydrogenases catalyse the direct transfer of electrons from NADH to NADP+ and from NADPH to NAD+, in the following reaction: NADH+NADP^+=NAD^++NADPH. Without wishing to be bound to any particularly theory, the inventors hypothesized the activity of these transhydrogenases is what makes the system able to restore anaerobic growth when transformed with enzymes that generate NADP+. Two triple mutants, where one transhydrogenase gene was knocked out in addition to adhE and ldhA, were generated, since there are 2 transhydrogenase genes in E. coli: • sthA (soluble transhydrogenase) • pntA (transmembrane transhydrogenase).

[3] = Enzymatic activity assays with purified enzyme, reduction of acetone; format: biochemical
[4] = Enzymatic activity assays with purified enzyme, oxidation of isopropanol; format: biochemical
LS1 strain cells = test: GC analysis of fermentation broth; format: cell-based, Escherichia coli; conditions: anaerobic, media supplemented with acetone
[5] = LS1, medium supplemented with acetoin
[6] = exogenous substrate acetoin, product 2,3-butanediol
[7] = exogenous substrate acetone, product isopropanol
[8] = exogenous substrate 2-nitrobenzoic acid
[9] = exogenous substrate 4-nitrobenzylic alcohol
[10] = exogenous substrate 2-methyl-1-pyrroline

B1: pLS2: pUC19 with sADH NADH-dependent from Bacillus subtilis (bdhA), acetoin reductase (protein, UniProt O34788 1-346, looked up)
(R,R)-butanediol dehydrogenase: MKAARWHNQKDIRIEHIEEPKTEPGKVKIKVKWCGICGSDLHEYLGGPIFIPVDKPHPLTNETAPVTMGHEFSGEVVEVGEGVENYKVGDRVVVEPIFATHGHQGAYNLDEQMGFLGLAGGGGGFSEYVSVDEELLFKLPDELSYEQGALVEPSAVALYAVRSSKLKAGDKAAVFGCGPIGLLVIEALKAAGATDIYAVELSPERQQKAEELGAIIVDPSKTDDVVAEIAERTGGGVDVAFEVTGVPVVLRQAIQSTTIAGETVIVSIWEKGAEIHPNDIVIKERTVKGIIGYRDIFPAVLSLMKEGYFSADKLVTKKIVLDDLIEEGFGALIKEKSQVKILVRPN
modifications: expressed from pUC19 plasmid
notes: pUC19 with sADH NADH-dependent from Bacillus subtilis (bdhA), acetoin reductase
anaerobic growth recovery [1, 5]: growth recovery was achieved | Acetate concentration (AL cells; exogenous substrate acetoin): 6.7 | Ethanol concentration (AL cells; exogenous substrate acetoin): 0 | Formate concentration (AL cells; exogenous substrate acetoin): 3.7 | Lactate concentration (AL cells; exogenous substrate acetoin): 0 | Substrate concentration (AL cells; exogenous substrate acetoin): 0 | Succinate concentration (AL cells; exogenous substrate acetoin): 0.5 | Product concentration (AL cells; [6]): 8.4

B2: Clostridium beijerinckii alcohol dehydrogenase (protein, listed as Clostridium beijerinckii)
chain: MKGFAMLGINKLGWIEKERPVAGSYDAIVRPLAVSPCTSDIHTVFEGALGDRKNMILGHEAVGEVVEVGSEVKDFKPGDRVIVPCTTPDWRSLEVQAGFQQHSNGMLAGWKFSNFKDGVFGEYFHVNDADMNLAILPKDMPLENAVMITDMMTTGFHGAELADIQMGSSVVVIGIGAVGLMGIAGAKLRGAGRIIGVGSRPICVEAAKFYGATDILNYKNGHIVDQVMKLTNGKGVDRVIMAGGGSETLSQAVSMVKPGGIISNINYHGSGDALLIPRVEWGCGMAHKTIKGGLCPGGRLRAEMLRDMVVYNRVDLSKLVTHVYHGFDHIEEALLLMKDKPKDLIKAVVIL
time after which growth recovery was observed ([1]; LS1 cells cultured anaerobically, media supplemented with acetone): 55 h | anaerobic growth (LS5 strain; media supplemented with acetone or not): anaerobic growth is not restored | Acetate concentration (AL cells; exogenous substrate acetone): 8.1 | Ethanol concentration (AL cells; exogenous substrate acetone): 0 | Formate concentration (AL cells; exogenous substrate acetone): 5.8 | Lactate concentration (AL cells; exogenous substrate acetone): 0 | Substrate concentration (AL cells; exogenous substrate acetone): 0.1 | Succinate concentration (AL cells; exogenous substrate acetone): 1.1 | Product concentration (AL cells; [7]): 10.8 | anaerobic growth [2]: still able to grow anaerobically

B3: CBADH-s: CBADH variant with substitutions G198D, S199Y and Y218P, uses NADH instead of NADPH (protein)
chain: MKGFAMLGINKLGWIEKERPVAGSYDAIVRPLAVSPCTSDIHTVFEGALGDRKNMILGHEAVGEVVEVGSEVKDFKPGDRVIVPCTTPDWRSLEVQAGFQQHSNGMLAGWKFSNFKDGVFGEYFHVNDADMNLAILPKDMPLENAVMITDMMTTGFHGAELADIQMGSSVVVIGIGAVGLMGIAGAKLRGAGRIIGVDYRPICVEAAKFYGATDILNPKNGHIVDQVMKLTNGKGVDRVIMAGGGSETLSQAVSMVKPGGIISNINYHGSGDALLIPRVEWGCGMAHKTIKGGLCPGGRLRAEMLRDMVVYNRVDLSKLVTHVYHGFDHIEEALLLMKDKPKDLIKAVVIL
modifications: amino acid variant of CBADH
notes: CBADH variant with substitutions G198D, S199Y and Y218P, uses NADH instead of NADPH
increase in activity compared to the wild type ([3]; reduction of acetone to isopropanol, NADH as the cofactor, purified enzyme): 4.6 fold | activity with NADP(H) as the cofactor ([3]; reduction reaction): no significant activity | anaerobic growth recovery ([1]; LS1, media supplemented with acetone): allowed growth recovery | anaerobic growth (LS5 strain; media supplemented with acetone): anaerobic growth is restored | increase in activity compared to the wild type ([4]; oxidation of isopropanol to acetone, NAD+ as the cofactor, purified enzyme): io | activity with NADP(H) as the cofactor ([4]; oxidation reaction): no significant activity | isopropanol in fermentation broth compared with pLS6 (LS1 strain cells): much higher levels | Acetate concentration (AL cells; exogenous substrate acetone): 13 | Ethanol concentration (AL cells; exogenous substrate acetone): 0 | Formate concentration (AL cells; exogenous substrate acetone): 9.9 | Lactate concentration (AL cells; exogenous substrate acetone): 0 | Substrate concentration (AL cells; exogenous substrate acetone): 0.5 | Succinate concentration (AL cells; exogenous substrate acetone): 1.1 | Product concentration (AL cells; [7]): 12.7

B4: nsfB nitroreductase from Enterobacter cloacae (protein, listed as Enterobacter cloacae)
chain: MDIISVALKRHSTKAFDASKKLTAEEAEKIKTLLQYSPSSTNSQPWHFIVASTEEGKARVAKSAAGTYVFNERKMLDASHVVVFCAKTAMDDAWLERVVDQEEADGRFNTPEAKAANHKGRTYFADMHRVDLKDDDQWMAKQVYLNVGNFLLGVGAMGLDAVPIEGFDAAILDEEFGLKEKGFTSLVVVPVGHHSVEDFNATLPKSRLPLSTIVTEC
Acetate concentration (AL cells; [8]): 0.7 | Ethanol concentration (AL cells; [8]): 0 | Formate concentration (AL cells; [8]): 0.4 | Lactate concentration (AL cells; [8]): 0 | Substrate concentration (AL cells; [8]): 14.1 | Succinate concentration (AL cells; [8]): 0 | Acetate concentration (AL cells; [9]): 0.8 | Ethanol concentration (AL cells; [9]): 0 | Formate concentration (AL cells; [9]): 0.4 | Lactate concentration (AL cells; [9]): 0 | Substrate concentration (AL cells; [9]): 8.28 | Succinate concentration (AL cells; [9]): 0

B5: EntNFSB-s2: nitroreductase variant identified for cells grown with 4-nitrobenzyl alcohol (protein)
chain: MDIISVALKRHSTKAFDASKKLTAEEAEKIKTLLQYSPSSLNSQPWHFIVASTEEGKARVAKSAAGTLVFNERKMLDASHVVVFCAKTAMDDAWLERVVDQEEADGRFNTPEAKAANHKGRTYLADMHRVDLKDDDQWMAKQVYLNVGNFLLGVGAMGLDAVPIEGFDAAILDEEFGLKEKGFTSLVVVPVGHHSVEDFNATLPKSRLPLSTIVTEC
modifications: no acid variant of Enterobacter cloacae nitroreductase
notes: nitroreductase variant identified for cells grown with 4-nitrobenzyl alcohol
Acetate concentration (AL cells; [9]): 13.2 | Ethanol concentration (AL cells; [9]): 0 | Formate concentration (AL cells; [9]): 7.9 | Lactate concentration (AL cells; [9]): 0 | Substrate concentration (AL cells; [9]): 0 | Succinate concentration (AL cells; [9]): 1

B6: EntNFSB-s1: nitroreductase variant selected for 2-NBA (protein)
chain: MDIISVALKRHSTKAFDASKKLTAEEAEKIKTLLQYSPSAINSQPWHFIVASTEEGKARVAKSAAGTYVFNERKMLDASHVVVFCAKTAMDDAWLERVVDQEEADGRFNTPEAKAANHKGRTYAADMHRVDLKDDDQWMAKQVYLNVGNFLLGVGAMGLDAVPIEGFDAAILDEEFGLKEKGFTSLVVVPVGHHSVEDFNATLPKSRLPLSTIVTEC
modifications: amino acid variant of Enterobacter cloacae nitroreductase
notes: nitroreductase variant selected for 2-NBA
Acetate concentration (AL cells; [8]): 4.4 | Ethanol concentration (AL cells; [8]): 0 | Formate concentration (AL cells; [8]): 2.9 | Lactate concentration (AL cells; [8]): 0 | Substrate concentration (AL cells; [8]): 12.4 | Succinate concentration (AL cells; [8]): 0.3

B7: Myxococcus stipitatus imine reductase (protein)
chain: MKPTLTVIGAGRMGSALIKAFLQSGYTTTVWNRTKAKSEPLAKLGAHLADTVRDAVKRSDIIVVNVLDYDTSDQLLRQDEVTRELRGKLLVQLTSGSPALAREQETWARQHGIDYLDGAIMATPDFIGQAECALLYSGSAALFEKHRAVLNVLGGATSHVGEDVGHASALDSALLFQMWGTLFGTLQALAISRAEGIPLEKTTAFIKLTEPVTQGAVADVLTRVQQNRLTADAQTLASLEAHNVAFQHLLALCEERNIHRGVADAMYSVIREAVKAGHGKDDFAILTRFLK
modifications: Myxococcus stipitatus imine reductase
Acetate concentration (AL cells; [10]): 4.3 | Ethanol concentration (AL cells; [10]): 0 | Formate concentration (AL cells; [10]): 2.1 | Lactate concentration (AL cells; [10]): 0 | Substrate concentration (AL cells; [10]): 5.5 | Succinate concentration (AL cells; [10]): 1.2 | Product concentration (AL cells; exogenous substrate 2-methyl-1-pyrroline, product 2-methylpyrrolidine): 6.6

B8: pLS3: pUC19 with sADH NADH-dependent from Klebsiella pneumoniae (budC), acetoin reductase (protein, UniProt Q48436 1-256, looked up)
Diacetyl reductase …: MKKVALVTGAGQGIGKAIALRLVKDGFAVAIADYNDATAKAVASEINQAGGRAMAVKVDVSDRDQVFAAVEQARKTLGGFDVIVNNAGVAPSTPIESITPEIVDKVYNINVKGVIWGIQAAVEAFKKEGHGGKIINACSQAGHVGNPELAVYSSSKFAVRGLTQTAARDLAPLGITVNGYCPGIVKTPMWAEIDRQVSEAAGKPLGYGTAEFAKRITLGRLSEPEDVAACVSYLASPDSDYMTGQSLLIDGGMVFN
modifications: expressed from pUC19 plasmid
notes: pUC19 with sADH NADH-dependent from Klebsiella pneumoniae (budC), acetoin reductase
anaerobic growth recovery [1, 5]: growth recovery was achieved | Acetate concentration (AL cells; exogenous substrate acetoin): 7.9 | Ethanol concentration (AL cells; exogenous substrate acetoin): 0 | Formate concentration (AL cells; exogenous substrate acetoin): 5 | Lactate concentration (AL cells; exogenous substrate acetoin): 0 | Substrate concentration (AL cells; exogenous substrate acetoin): 0.2 | Succinate concentration (AL cells; exogenous substrate acetoin): 0.7 | Product concentration (AL cells; [6]): 8.3
